Changes are numbered by the printed parent chain.
B1: INS Analog 29 (other)
chain: FVSQHLCGSHLVEALRLVCGERGFHYTPKTGGGGGGGIVEQCCHSICSLYQLENYCGGGGGQGGGGQGGGGQGGGGQGGGGQEVQLLESGGGLVQPGGSLRLSCAASGRYIDETAVAWFRQAPGKEREFVAGIGGGVDITYYADSVKGRFTISRDNSKNTLYLQMNSLRPEDTAVYYCAARPGRPLITSKVADLYPYWGQGTLVTVSSPP
notes: single-chain insulin B-L2-A-L1-VHH fusion; also called Ex. 29
B2: INS Analog 27 (other)
chain: B1 chain with H25F
notes: single-chain insulin B-L2-A-L1-VHH fusion; also called Ex. 27
B3: INS Analog 23 (other)
chain: B1 chain with R16H, Y50E
notes: single-chain insulin B-L2-A-L1-VHH fusion; also called Ex. 23
B4: INS Analog 30 (other)
chain: FVSQHLCGSHLVEALRLVCGERGFHYTPKTGGGGGGGIVEQCCHSICSLYQLENYCGPGPQPGPQPGPQPGPQPGPQPGPQPGPQPGPQEVQLLESGGGLVQPGGSLRLSCAASGRYIDETAVAWFRQAPGKEREFVAGIGGGVDITYYADSVKGRFTISRDNSKNTLYLQMNSLRPEDTAVYYCAARPGRPLITSKVADLYPYWGQGTLVTVSSPP
notes: single-chain insulin B-L2-A-L1-VHH fusion; also called Ex. 30
B5: INS Analog 26 (other)
chain: B4 chain with H25F, H44T
notes: single-chain insulin B-L2-A-L1-VHH fusion; also called Ex. 26
B6: INS Analog 24 (other)
chain: B4 chain with R16H, Y50E
notes: single-chain insulin B-L2-A-L1-VHH fusion; also called Ex. 24
B7: INS Analog 28 (other)
chain: B4 chain with H25F
notes: single-chain insulin B-L2-A-L1-VHH fusion; also called Ex. 28

Columns and labels:
[1] = target: T1, rabbit serum albumin (rabbit, UniProt P49065 25-608); assay: SPR (Biacore 8K), albumin immobilised, 25 C
T1 construct: bought protein, amine-coupled to a CM5 chip; also called Rabbit SA
Experimental: (§1) Immobilization of serum albumin to a Series S Sensor Chip CM5 surface is performed according to the manufacturer's instructions (Amine Coupling Kit BR-1000-50). Briefly, carboxyl groups on the sensor chip surfaces (flow cell 1 and 2) are activated by injecting 70 μL of a mixture containing 75 mg/ml EDC and 11.5 mg/ml NHS at 10 μL/min. Human, cynomolgus monkey, mouse, rat, pig, dog, cow and rabbit serum albumin are diluted in 10 mM NaOAc pH 4.0 (BR-1003-49) at 1, 1, 3, 1, 1, 1, 1 and 1 μg/mL and then injected over the activated chip surfaces (flow cell 2, […]) at 10 μL/min for 90 sec (human, mouse, rat, pig and cow serum albumin are obtained from Sigma Aldrich (St. Louis, Mo.); cynomolgus monkey serum albumin is obtained from Holzel Diagnostika (Cologne, Germany); dog serum albumin is obtained from Molecular Innovations (Novi, Mich.); and rabbit serum albumin is obtained from Fitzgerald Industries International (Acton, Mass.)). […] Excess reactive groups on the surfaces (flow cell 1 and 2) are deactivated by injecting 70 μL of 1 M ETA HCl—NaOH pH 8.5 at 10 μL/min.
(§2) 150 μL of sample is individually injecting sequentially across the immobilized serum albumins surface and then dissociates for 600 sec at 50 μL/min flow rate at 25° C. The surface is regenerated by injecting 10 mM glycine-HCl pH 1.5 (BR-1003-54) at 50 μL/min for 100 sec. The resulting sensorgrams are analyzed using Biacore 8K Insight Evaluation Software (version 2.0.15.12933) 1:1 binding kinetics or steady-state affinity model fitting to calculate the binding kinetic parameter association rate (ka), dissociation rate (kd), and equilibrium dissociation constant (KD)

[2] = target: T2, human insulin receptor isoform A with C-terminal C9 tag (human, UniProt P06213 28-1382); assay: 125I-insulin competition SPA, hIR-A membranes, 0.1% BSA
T2 construct: membranes of stably transfected HEK293 cells; also called hIR-A; human IR-A
Experimental: (§3) The assays are performed with a SPA method using polyvinyltoluene (PVT) wheat germ agglutinin-coupled SPA beads (Perkin Elmer). Assay buffer contains 50 mM Tris-HCl, pH 7.5, 150 mM NaCl and either A) 0.1% w/v fatty-acid free BSA; B) 0.1% w/v fatty-acid free human serum albumin (HSA); C) 0.1% w/v rat serum albumin (RSA); or D) 0.001% Nonidet P-40 Substitute (NP-40, Roche Diagnostics). Ten-point concentration response curves using three-fold serial dilutions of test samples or controls are prepared in Assay Buffer using a Freedom/Evo robot (Tecan).
(§4) Percent specific inhibition (y-axis) is plotted versus the log concentration of compound (x-axis). […] Reported Ki values are shown as the geometric mean with the standard error (Delta Method Standard Error) and the number of independent replicate determinations used to calculate the geometric mean indicated by n.

[3] = target: T2, human insulin receptor isoform A with …; assay: 125I-insulin competition SPA, hIR-A membranes, 0.1% HSA
Experimental: as §3, §4

[4] = target: T3, human insulin receptor isoform B with C-terminal C9 tag (human, UniProt P06213 28-1382); assay: 125I-insulin competition SPA, hIR-B membranes, 0.1% BSA
T3 construct: membranes of stably transfected HEK293 cells; also called hIR-B; human IR-B
Experimental: as §3, §4

[5] = target: T3, human insulin receptor isoform B with …; assay: 125I-insulin competition SPA, hIR-B membranes, 0.1% HSA
Experimental: as §3, §4

[6] = target: T4, human serum albumin (human, UniProt P02768 25-609); assay: SPR (Biacore 8K), albumin immobilised, 25 C, 1:1 kinetics
T4 construct: bought protein, amine-coupled to a CM5 chip; also called Human SA; HSA
Experimental: as §1, §2

[7] = target: T5, cynomolgus monkey serum albumin (cynomolgus monkey, UniProt A2V9Z4 25-608); assay: as above
T5 construct: bought protein, amine-coupled to a CM5 chip; also called Cyno SA
Experimental: as §1, §2

[8] = target: T6, mouse serum albumin (mouse, UniProt P07724 25-608); assay: as above
T6 construct: bought protein, amine-coupled to a CM5 chip; also called Mouse SA
Experimental: as §1, §2

[9] = target: T7, rat serum albumin (rat, UniProt P02770 25-608); assay: as above
T7 construct: bought protein, amine-coupled to a CM5 chip; also called Rat SA; RSA
Experimental: as §1, §2

[10] = target: T8, pig serum albumin (pig, UniProt P08835 25-607); assay: as above
T8 construct: bought protein, amine-coupled to a CM5 chip; also called Pig SA
Experimental: as §1, §2

[11] = target: T9, dog serum albumin (dog, UniProt P49822 25-608); assay: as above
T9 construct: bought protein, amine-coupled to a CM5 chip; also called Dog SA
Experimental: as §1, §2

[12] = target: T2, human insulin receptor isoform A with …; assay: 125I-insulin competition SPA, hIR-A membranes, 0.001% NP-40
Experimental: as §3, §4

[13] = target: T3, human insulin receptor isoform B with …; assay: 125I-insulin competition SPA, hIR-B membranes, 0.001% NP-40
Experimental: as §3, §4

[14] = target: T10, cow serum albumin (cow, UniProt P02769 25-607); assay: SPR (Biacore 8K), albumin immobilised, 25 C, steady-state affinity
T10 construct: bought protein, amine-coupled to a CM5 chip; also called Cow SA; Bovine SA
Experimental: as §1, §2

| Binder | binding result [1] | Ki [2] | Kd [6] | koff [6] | kon [6] | Kd [7] | koff [7] | kon [7] | Kd [8] | koff [8] | kon [8] | Kd [9] | koff [9] | kon [9] | Kd [10] | koff [10] | kon [10] | Kd [11] | koff [11] | kon [11] | also measured |
| --- | --- | --- | --- | --- | --- | --- | --- | --- | --- | --- | --- | --- | --- | --- | --- | --- | --- | --- | --- | --- | --- |
| B1 | no binding (tested: up to 1000 nM) | 179 nM | 0.74 nM | 0.00013 s⁻¹ | 180000 M⁻¹ s⁻¹ | 4.4 nM | 0.00078 s⁻¹ | 180000 M⁻¹ s⁻¹ | 48 nM | 0.0087 s⁻¹ | 180000 M⁻¹ s⁻¹ | 32 nM | 0.0065 s⁻¹ | 200000 M⁻¹ s⁻¹ | 86 nM | 0.013 s⁻¹ | 150000 M⁻¹ s⁻¹ | 16 nM | 0.0032 s⁻¹ | 190000 M⁻¹ s⁻¹ | Ki [3]: 28.2 nM; Ki [4]: 124 nM; Ki [5]: 38.1 nM; Ki [12]: 34 nM; Ki [13]: 62.5 nM; Kd [14]: 380 nM |
| B2 | no binding (tested: up to 1000 nM) | 103 nM | 0.75 nM | 0.00013 s⁻¹ | 170000 M⁻¹ s⁻¹ | 4.7 nM | 0.00078 s⁻¹ | 170000 M⁻¹ s⁻¹ | 45 nM | 0.0079 s⁻¹ | 170000 M⁻¹ s⁻¹ | 32 nM | 0.0061 s⁻¹ | 190000 M⁻¹ s⁻¹ | 90 nM | 0.01 s⁻¹ | 120000 M⁻¹ s⁻¹ | 17 nM | 0.003 s⁻¹ | 180000 M⁻¹ s⁻¹ | Ki [12]: 50.5 nM; Kd [14]: 390 nM |
| B3 | no binding (tested: up to 1000 nM) | 55.1 nM | 0.73 nM | 9e-05 s⁻¹ | 120000 M⁻¹ s⁻¹ | 6.8 nM | 0.00084 s⁻¹ | 120000 M⁻¹ s⁻¹ | 76 nM | 0.0093 s⁻¹ | 120000 M⁻¹ s⁻¹ | 53 nM | 0.0065 s⁻¹ | 120000 M⁻¹ s⁻¹ | 130 nM | 0.012 s⁻¹ | 95000 M⁻¹ s⁻¹ | 23 nM | 0.0033 s⁻¹ | 140000 M⁻¹ s⁻¹ | Ki [12]: 18.9 nM; Kd [14]: 590 nM |
| B4 | no binding (tested: up to 1000 nM) | 127 nM | 0.73 nM | 0.00011 s⁻¹ | 160000 M⁻¹ s⁻¹ | 4.3 nM | 0.00069 s⁻¹ | 160000 M⁻¹ s⁻¹ | 39 nM | 0.0071 s⁻¹ | 190000 M⁻¹ s⁻¹ | 30 nM | 0.0051 s⁻¹ | 170000 M⁻¹ s⁻¹ | 80 nM | 0.0092 s⁻¹ | 110000 M⁻¹ s⁻¹ | 13 nM | 0.0022 s⁻¹ | 170000 M⁻¹ s⁻¹ | Ki [3]: 17.2 nM; Ki [4]: 100 nM; Ki [5]: 24.5 nM; Ki [12]: 49.3 nM; Ki [13]: 60 nM; Kd [14]: 370 nM |
| B5 | no binding (tested: up to 1000 nM) | 389 nM | 0.49 nM | 9.4e-05 s⁻¹ | 190000 M⁻¹ s⁻¹ | 3.9 nM | 0.00069 s⁻¹ | 180000 M⁻¹ s⁻¹ | 35 nM | 0.0069 s⁻¹ | 200000 M⁻¹ s⁻¹ | 32 nM | 0.0056 s⁻¹ | 170000 M⁻¹ s⁻¹ | 87 nM | 0.0098 s⁻¹ | 110000 M⁻¹ s⁻¹ | 13 nM | 0.0023 s⁻¹ | 170000 M⁻¹ s⁻¹ | Ki [3]: 40.6 nM; Ki [4]: 405 nM; Ki [5]: 105 nM; Ki [12]: 105 nM; Ki [13]: 214 nM; Kd [14]: 400 nM |
| B6 | no binding (tested: up to 1000 nM) | 56.8 nM | 0.91 nM | 0.00012 s⁻¹ | 140000 M⁻¹ s⁻¹ | 5.5 nM | 0.00075 s⁻¹ | 130000 M⁻¹ s⁻¹ | 49 nM | 0.0073 s⁻¹ | 150000 M⁻¹ s⁻¹ | 40 nM | 0.0057 s⁻¹ | 140000 M⁻¹ s⁻¹ | 100 nM | 0.011 s⁻¹ | 100000 M⁻¹ s⁻¹ | 16 nM | 0.0024 s⁻¹ | 150000 M⁻¹ s⁻¹ | Ki [12]: 21.8 nM; Kd [14]: 430 nM |
| B7 | no binding (tested: up to 1000 nM) | 71 nM | 0.73 nM | 0.00012 s⁻¹ | 160000 M⁻¹ s⁻¹ | 4.1 nM | 0.00067 s⁻¹ | 170000 M⁻¹ s⁻¹ | 37 nM | 0.006 s⁻¹ | 160000 M⁻¹ s⁻¹ | 26 nM | 0.0048 s⁻¹ | 180000 M⁻¹ s⁻¹ | 75 nM | 0.0084 s⁻¹ | 110000 M⁻¹ s⁻¹ | 12 nM | 0.0021 s⁻¹ | 170000 M⁻¹ s⁻¹ | Ki [12]: 32.7 nM; Kd [14]: 400 nM |
